Measured values published in PMC9482650, “Quantitative fragmentomics allow affinity mapping of interactomes” (Nature Communications, 2022).
Positions count from the first letter of the chain named.

What was measured:
Test in all cases: holdup assay
Parameters in all cases: key: below the threshold = too weak to quantify, mostly under pKd 3.1 to 4
SNX27, Q96L92 = target: SNX27, Q96L92
MAGI2_5, Q86UL8 = target: MAGI2_5, Q86UL8
Inadl_8, Q8NI35 = target: Inadl_8, Q8NI35
GRIP1_7, Q9Y3R0 = target: T1, GRIP1_7, Q9Y3R0
T1 sequence (Q9Y3R0 999-1096, limits assumed, looked up): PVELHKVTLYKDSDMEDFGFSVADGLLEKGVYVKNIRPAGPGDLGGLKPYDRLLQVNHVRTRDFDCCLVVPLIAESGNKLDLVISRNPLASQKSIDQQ

HTRA2, O43464 = target: HTRA2, O43464
NHERF4_1, Q86UT5-2 = target: NHERF4_1, Q86UT5-2
MAST1, Q9Y2H9 = target: MAST1, Q9Y2H9
PTPN3, P26045 = target: PTPN3, P26045
NHERF2_2, Q15599 = target: NHERF2_2, Q15599
GORASP1, Q9BQQ3 = target: GORASP1, Q9BQQ3
SCRIB_2, Q14160 = target: SCRIB_2, Q14160
MAGI3_2, Q5TCQ9 = target: MAGI3_2, Q5TCQ9
SNTG2, Q9NY99 = target: T2, SNTG2, Q9NY99
T2 sequence (Q9NY99 68-166, limits assumed, looked up): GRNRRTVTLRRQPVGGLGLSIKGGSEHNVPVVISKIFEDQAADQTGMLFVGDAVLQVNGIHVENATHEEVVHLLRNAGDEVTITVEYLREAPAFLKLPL

AHNAK1, Q09666 = target: AHNAK1, Q09666
GRIP1_2, Q9Y3R0 = target: T3, GRIP1_2, Q9Y3R0
T3 sequence (Q9Y3R0 145-248, limits assumed, looked up): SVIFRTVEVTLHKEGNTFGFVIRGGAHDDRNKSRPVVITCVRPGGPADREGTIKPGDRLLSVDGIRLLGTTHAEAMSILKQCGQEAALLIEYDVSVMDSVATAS

Inadl_1, Q8NI35 = target: Inadl_1, Q8NI35
PDLIM1, O00151 = target: PDLIM1, O00151
LIN7B, Q9HAP6 = target: T4, LIN7B, Q9HAP6
T4 sequence (Q9HAP6 88-185, limits assumed, looked up): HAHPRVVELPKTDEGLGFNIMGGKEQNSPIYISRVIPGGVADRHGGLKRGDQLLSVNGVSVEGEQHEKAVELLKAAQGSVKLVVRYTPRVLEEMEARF

CASK, O14936 = target: CASK, O14936
PARD3_3, Q8TEW0 = target: PARD3_3, Q8TEW0
ARHGEF12, Q9NZN5-2 = target: ARHGEF12, Q9NZN5-2
DLG3_3, Q92796 = target: T5, DLG3_3, Q92796
T5 sequence (Q92796 374-475, limits assumed, looked up): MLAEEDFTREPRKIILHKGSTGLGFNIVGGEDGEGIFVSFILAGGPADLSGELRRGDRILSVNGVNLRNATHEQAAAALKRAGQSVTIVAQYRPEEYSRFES

APBA1_1, Q02410 = target: T6, APBA1_1, Q02410
T6 sequence (Q02410 651-752, limits assumed, looked up): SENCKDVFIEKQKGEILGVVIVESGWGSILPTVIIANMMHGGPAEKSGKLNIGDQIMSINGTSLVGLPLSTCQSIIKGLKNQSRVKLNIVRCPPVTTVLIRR

TJP3_3, O95049 = target: T7, TJP3_3, O95049
T7 sequence (O95049 375-456, limits assumed, looked up): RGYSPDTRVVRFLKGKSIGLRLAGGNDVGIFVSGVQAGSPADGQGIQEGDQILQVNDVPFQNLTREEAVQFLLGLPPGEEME

TJP1_2, Q07157 = target: TJP1_2, Q07157
SCRIB_3, Q14160 = target: SCRIB_3, Q14160
MAGI2_3, Q86UL8 = target: MAGI2_3, Q86UL8
MAST2, Q6P0Q8 = target: MAST2, Q6P0Q8
LNX1_1, Q8TBB1 = target: LNX1_1, Q8TBB1
LIN7C, Q9NUP9 = target: T8, LIN7C, Q9NUP9
T8 sequence (Q9NUP9 88-185, limits assumed, looked up): T4 sequence (Q9HAP6 88-185, limits assumed, looked up) with A2S, D13E, V35I, V40I, Q65H, S79K, R89K, A96S

SCRIB_1, Q14160 = target: SCRIB_1, Q14160
[1] = plain residues with an end cap or a label only (N-terminal biotin on a linker: ado-ado)
[2] = plain residues with an end cap or a label only (N-terminal biotin on a linker: ttds)
[3] = plain residues with an end cap or a label only (N-terminal biotin on a linker: ahx)

Sequence of MAST2, Q6P0Q8 (Q6P0Q8 1099-1202): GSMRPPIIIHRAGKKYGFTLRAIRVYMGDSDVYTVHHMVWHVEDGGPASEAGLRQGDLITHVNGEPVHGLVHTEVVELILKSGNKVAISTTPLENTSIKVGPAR
Sequence of CASK, O14936 (O14936 487-570): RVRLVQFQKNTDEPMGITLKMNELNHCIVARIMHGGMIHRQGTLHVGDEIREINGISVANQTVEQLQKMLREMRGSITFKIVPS
Sequence of HTRA2, O43464 (O43464 355-458): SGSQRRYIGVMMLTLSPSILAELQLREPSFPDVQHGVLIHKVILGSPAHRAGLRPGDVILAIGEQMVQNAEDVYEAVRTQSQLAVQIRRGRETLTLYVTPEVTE
Sequence of NHERF4_1, Q86UT5-2 (Q86UT5 other isoform, or with tags, fused parts or gaps): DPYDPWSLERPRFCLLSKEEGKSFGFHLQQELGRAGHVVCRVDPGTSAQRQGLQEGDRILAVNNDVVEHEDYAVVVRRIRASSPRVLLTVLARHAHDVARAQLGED
Sequence of PARD3_3, Q8TEW0 (Q8TEW0 582-685): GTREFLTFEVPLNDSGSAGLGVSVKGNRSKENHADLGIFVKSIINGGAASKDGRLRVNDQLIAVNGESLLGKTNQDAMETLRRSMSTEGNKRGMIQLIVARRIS
Sequence of TJP1_2, Q07157 (Q07157 181-274): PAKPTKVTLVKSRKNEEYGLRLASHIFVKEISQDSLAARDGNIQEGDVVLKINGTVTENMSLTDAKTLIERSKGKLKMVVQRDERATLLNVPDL
Sequence of SCRIB_1, Q14160 (Q14160 718-814): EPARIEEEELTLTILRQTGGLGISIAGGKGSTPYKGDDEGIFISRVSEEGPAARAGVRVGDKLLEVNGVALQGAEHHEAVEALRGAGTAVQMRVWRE
Sequence of PDLIM1, O00151 (O00151 1-87): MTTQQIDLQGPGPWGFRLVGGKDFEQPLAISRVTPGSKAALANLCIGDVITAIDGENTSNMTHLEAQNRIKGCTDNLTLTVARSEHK
Sequence of LNX1_1, Q8TBB1 (Q8TBB1 261-371): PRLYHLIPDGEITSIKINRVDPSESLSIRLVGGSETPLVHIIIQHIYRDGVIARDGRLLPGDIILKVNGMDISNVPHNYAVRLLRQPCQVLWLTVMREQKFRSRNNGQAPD
Sequence of PTPN3, P26045 (P26045 505-587): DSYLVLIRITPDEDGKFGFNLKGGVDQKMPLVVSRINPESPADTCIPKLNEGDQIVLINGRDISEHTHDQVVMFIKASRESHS
Sequence of SCRIB_2, Q14160 (Q14160 857-960): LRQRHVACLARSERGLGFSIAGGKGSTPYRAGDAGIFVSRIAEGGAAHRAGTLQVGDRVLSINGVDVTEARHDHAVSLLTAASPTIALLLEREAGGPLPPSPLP
Sequence of NHERF2_2, Q15599 (Q15599 142-238): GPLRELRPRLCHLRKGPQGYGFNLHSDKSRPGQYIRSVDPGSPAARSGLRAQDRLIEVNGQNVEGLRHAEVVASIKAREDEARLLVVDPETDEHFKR
Sequence of MAGI3_2, Q5TCQ9 (Q5TCQ9 398-503): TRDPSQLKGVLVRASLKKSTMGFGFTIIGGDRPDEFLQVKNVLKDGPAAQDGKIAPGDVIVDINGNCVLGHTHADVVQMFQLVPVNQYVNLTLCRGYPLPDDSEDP
Sequence of Inadl_1, Q8NI35 (Q8NI35 113-229): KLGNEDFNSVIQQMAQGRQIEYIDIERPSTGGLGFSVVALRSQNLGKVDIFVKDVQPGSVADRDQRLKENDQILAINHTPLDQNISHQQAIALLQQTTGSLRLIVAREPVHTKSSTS
Sequence of MAGI2_5, Q86UL8 (Q86UL8 915-1017): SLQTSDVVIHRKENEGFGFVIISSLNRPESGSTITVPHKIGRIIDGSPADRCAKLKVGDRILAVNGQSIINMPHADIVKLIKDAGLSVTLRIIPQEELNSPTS
Sequence of AHNAK1, Q09666 (Q09666 4-100): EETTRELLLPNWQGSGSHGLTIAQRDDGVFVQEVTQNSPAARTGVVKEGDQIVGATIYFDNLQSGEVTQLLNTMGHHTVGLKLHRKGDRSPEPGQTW
Sequence of MAGI2_3, Q86UL8 (Q86UL8 600-682): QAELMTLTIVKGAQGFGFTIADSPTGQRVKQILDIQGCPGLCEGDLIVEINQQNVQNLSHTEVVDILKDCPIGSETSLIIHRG
Sequence of ARHGEF12, Q9NZN5-2 (Q9NZN5 other isoform, or with tags, fused parts or gaps): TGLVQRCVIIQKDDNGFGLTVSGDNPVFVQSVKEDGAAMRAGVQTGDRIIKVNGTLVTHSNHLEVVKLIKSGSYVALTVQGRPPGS
Sequence of MAST1, Q9Y2H9 (Q9Y2H9 962-1065): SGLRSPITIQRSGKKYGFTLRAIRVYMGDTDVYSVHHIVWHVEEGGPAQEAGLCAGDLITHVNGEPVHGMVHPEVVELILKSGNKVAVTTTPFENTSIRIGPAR
Sequence of GORASP1, Q9BQQ3 (Q9BQQ3 1-208): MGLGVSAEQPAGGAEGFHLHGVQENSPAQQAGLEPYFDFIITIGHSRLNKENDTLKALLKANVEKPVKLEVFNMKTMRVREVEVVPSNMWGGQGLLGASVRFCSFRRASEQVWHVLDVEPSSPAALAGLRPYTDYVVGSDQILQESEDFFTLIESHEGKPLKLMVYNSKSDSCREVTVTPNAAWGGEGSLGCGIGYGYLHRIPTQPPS
Sequence of SCRIB_3, Q14160 (Q14160 999-1103): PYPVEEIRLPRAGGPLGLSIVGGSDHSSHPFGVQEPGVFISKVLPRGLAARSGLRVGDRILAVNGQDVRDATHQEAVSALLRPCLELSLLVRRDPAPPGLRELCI
Sequence of Inadl_8, Q8NI35 (Q8NI35 1425-1530): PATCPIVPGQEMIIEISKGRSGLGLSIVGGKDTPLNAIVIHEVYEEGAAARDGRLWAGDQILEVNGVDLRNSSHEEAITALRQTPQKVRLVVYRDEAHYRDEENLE

Binder: QKNKDKEYYV [NRXN3_rs746444206, Q9Y4C0]
- pKd (SNX27, Q96L92; [1]): below the threshold
- pKd (MAGI2_5, Q86UL8; [1]): below the threshold
- pKd (Inadl_8, Q8NI35; [1]): below the threshold
- pKd (GRIP1_7, Q9Y3R0; [1]): 4.55
- pKd (HTRA2, O43464; [1]): 3.51
- pKd (NHERF4_1, Q86UT5-2; [1]): below the threshold
- pKd (MAST1, Q9Y2H9; [1]): below the threshold
- pKd (PTPN3, P26045; [1]): 4.28
- pKd (NHERF2_2, Q15599; [1]): below the threshold
- pKd (GORASP1, Q9BQQ3; [1]): 4.12
- pKd (SCRIB_2, Q14160; [1]): below the threshold
- pKd (MAGI3_2, Q5TCQ9; [1]): 4.63
- pKd (SNTG2, Q9NY99; [1]): below the threshold
- pKd (AHNAK1, Q09666; [1]): below the threshold
- pKd (GRIP1_2, Q9Y3R0; [1]): below the threshold
- pKd (Inadl_1, Q8NI35; [1]): 3.51
- pKd (PDLIM1, O00151; [1]): below the threshold
- pKd (LIN7B, Q9HAP6; [1]): 3.59
- pKd (CASK, O14936; [1]): 3.55
- pKd (PARD3_3, Q8TEW0; [1]): 4.48
- pKd (ARHGEF12, Q9NZN5-2; [1]): below the threshold
- pKd (DLG3_3, Q92796; [1]): below the threshold
- pKd (APBA1_1, Q02410; [1]): below the threshold
- pKd (TJP3_3, O95049; [1]): 3.86
- pKd (TJP1_2, Q07157; [1]): below the threshold
- pKd (SCRIB_3, Q14160; [1]): below the threshold
- pKd (MAGI2_3, Q86UL8; [1]): below the threshold
- pKd (MAST2, Q6P0Q8; [1]): 3.97
- pKd (LNX1_1, Q8TBB1; [1]): below the threshold
- pKd (LIN7C, Q9NUP9; [1]): 4.08
- pKd (SCRIB_1, Q14160; [1]): below the threshold

Binder: DPLTPSRSQL [DGKK, Q5KSL6]
- pKd (SNX27, Q96L92; [2]): below the threshold
- pKd (MAGI2_5, Q86UL8; [2]): below the threshold
- pKd (Inadl_8, Q8NI35; [2]): below the threshold
- pKd (GRIP1_7, Q9Y3R0; [2]): below the threshold
- pKd (HTRA2, O43464; [2]): below the threshold
- pKd (NHERF4_1, Q86UT5-2; [2]): 3.81
- pKd (MAST1, Q9Y2H9; [2]): 4.16
- pKd (PTPN3, P26045; [2]): below the threshold
- pKd (NHERF2_2, Q15599; [2]): below the threshold
- pKd (GORASP1, Q9BQQ3; [2]): below the threshold
- pKd (SCRIB_2, Q14160; [2]): below the threshold
- pKd (MAGI3_2, Q5TCQ9; [2]): 3.55
- pKd (SNTG2, Q9NY99; [2]): 3.84
- pKd (AHNAK1, Q09666; [2]): below the threshold
- pKd (GRIP1_2, Q9Y3R0; [2]): below the threshold
- pKd (Inadl_1, Q8NI35; [2]): below the threshold
- pKd (PDLIM1, O00151; [2]): below the threshold
- pKd (LIN7B, Q9HAP6; [2]): below the threshold
- pKd (CASK, O14936; [2]): below the threshold
- pKd (PARD3_3, Q8TEW0; [2]): below the threshold
- pKd (ARHGEF12, Q9NZN5-2; [2]): 3.86
- pKd (DLG3_3, Q92796; [2]): below the threshold
- pKd (APBA1_1, Q02410; [2]): below the threshold
- pKd (TJP3_3, O95049; [2]): below the threshold
- pKd (TJP1_2, Q07157; [2]): below the threshold
- pKd (SCRIB_3, Q14160; [2]): 3.5
- pKd (MAGI2_3, Q86UL8; [2]): below the threshold
- pKd (MAST2, Q6P0Q8; [2]): 4.36
- pKd (LNX1_1, Q8TBB1; [2]): below the threshold
- pKd (LIN7C, Q9NUP9; [2]): below the threshold
- pKd (SCRIB_1, Q14160; [2]): below the threshold

Binder: RNCSTNDSLL [ADRB2, P07550]
- pKd (SNX27, Q96L92; [3]): 3.6
- pKd (MAGI2_5, Q86UL8; [3]): below the threshold
- pKd (Inadl_8, Q8NI35; [3]): below the threshold
- pKd (GRIP1_7, Q9Y3R0; [3]): 3.48
- pKd (HTRA2, O43464; [3]): below the threshold
- pKd (NHERF4_1, Q86UT5-2; [3]): 3.88
- pKd (MAST1, Q9Y2H9; [3]): 3.74
- pKd (PTPN3, P26045; [3]): 3.53
- pKd (NHERF2_2, Q15599; [3]): 3.7
- pKd (GORASP1, Q9BQQ3; [3]): below the threshold
- pKd (SCRIB_2, Q14160; [3]): below the threshold
- pKd (MAGI3_2, Q5TCQ9; [3]): below the threshold
- pKd (SNTG2, Q9NY99; [3]): below the threshold
- pKd (AHNAK1, Q09666; [3]): below the threshold
- pKd (GRIP1_2, Q9Y3R0; [3]): below the threshold
- pKd (Inadl_1, Q8NI35; [3]): below the threshold
- pKd (PDLIM1, O00151; [3]): 3.77
- pKd (LIN7B, Q9HAP6; [3]): below the threshold
- pKd (CASK, O14936; [3]): below the threshold
- pKd (PARD3_3, Q8TEW0; [3]): 3.79
- pKd (ARHGEF12, Q9NZN5-2; [3]): below the threshold
- pKd (DLG3_3, Q92796; [3]): below the threshold
- pKd (APBA1_1, Q02410; [3]): 3.63
- pKd (TJP3_3, O95049; [3]): below the threshold
- pKd (TJP1_2, Q07157; [3]): below the threshold
- pKd (SCRIB_3, Q14160; [3]): below the threshold
- pKd (MAGI2_3, Q86UL8; [3]): below the threshold
- pKd (MAST2, Q6P0Q8; [3]): 4.08
- pKd (LNX1_1, Q8TBB1; [3]): below the threshold
- pKd (LIN7C, Q9NUP9; [3]): below the threshold
- pKd (SCRIB_1, Q14160; [3]): 3.58
